Experimental data reported in IntAct's records for PubMed 29039417.

B1: BBSome complex member BBS2 (Homo sapiens), Q9BXC9 (parent)
chain: MLLPVFTLKLRHKISPRMVAIGRYDGTHPCLAAATQTGKVFIHNPHTRNQHVSASRVFQSPLESDVSLLSINQAVSCLTAGVLNPELGYDALLVGTQTNLLAYDVYNNSDLFYREVADGANAIVLGTLGDISSPLAIIGGNCALQGFNHEGSDLFWTVTGDNVNSLALCDFDGDGKKELLVGSEDFDIRVFKEDEIVAEMTETEIVTSLCPMYGSRFGYALSNGTVGVYDKTSRYWRIKSKNHAMSIHAFDLNSDGVNELITGWSNGKVDARSDRTGEVIFKDNFSSAIAGVVEGDYRMDGHIQLICCSVDGEIRGYLPGTAEMRGNLMDTSAEQDLIRELSQKKQNLLLELRNYEENAKAELASPLNEADGHRGIIPANTRLHTTLSVSLGNETQTAHTELRISTSNDTIIRAVLIFAEGIFTGESHVVHPSIHNLSSSICIPIVPPKDVPVDLHLKAFVGYRSSTQFHVFESTRQLPRFSMYALTSLDPASEPISYVNFTIAERAQRVVVWLGQNFLLPEDTHIQNAPFQVCFTSLRNGGHLHIKIKLSGEITINTDDIDLAGDIIQSMASFFAIEDLQVEADFPVYFEELRKVLVKVDEYHSVHQKLSADMADHSNLIRSLLVGAEDARLMRDMKTMKSRYMELYDLNRDLLNGYKIRCNNHTELLGNLKAVNQAIQRAGRLRVGKPKNQVITACRDAIRSNNINTLFKIMRVGTASS
partner: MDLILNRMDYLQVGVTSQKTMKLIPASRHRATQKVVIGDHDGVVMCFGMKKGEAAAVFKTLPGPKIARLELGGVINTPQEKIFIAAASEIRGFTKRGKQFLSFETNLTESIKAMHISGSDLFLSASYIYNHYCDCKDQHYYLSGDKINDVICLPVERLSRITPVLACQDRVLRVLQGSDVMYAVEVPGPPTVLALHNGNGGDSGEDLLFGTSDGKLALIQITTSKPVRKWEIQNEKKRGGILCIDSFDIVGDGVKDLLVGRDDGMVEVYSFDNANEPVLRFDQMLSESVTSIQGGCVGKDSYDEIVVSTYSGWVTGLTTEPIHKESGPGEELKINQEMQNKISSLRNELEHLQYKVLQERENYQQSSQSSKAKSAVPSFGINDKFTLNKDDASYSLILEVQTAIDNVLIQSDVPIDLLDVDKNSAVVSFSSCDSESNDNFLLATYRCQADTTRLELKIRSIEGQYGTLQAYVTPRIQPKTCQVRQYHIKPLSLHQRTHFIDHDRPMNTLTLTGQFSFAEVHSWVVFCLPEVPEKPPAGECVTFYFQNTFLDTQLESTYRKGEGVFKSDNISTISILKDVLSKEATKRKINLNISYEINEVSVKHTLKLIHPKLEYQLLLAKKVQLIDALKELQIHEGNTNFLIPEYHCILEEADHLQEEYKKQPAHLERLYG

Variants of: B1
Details: with BBS7, Q8IWZ6-2

Effect of a mutation on the interaction, disrupting interaction strength:
L402A
L402C
L402K
I404K
N408S
I412R

Effect of a mutation on the interaction, with no effect:
T397E
T397K
A398E
A398K
H399A
H399E
H399K
T400A
T400E
T400K
E401A
E401K
L402E
R403A
R403E
R403K
I404A
I404E
S405A
S405E
S405K
T406A
T406E
T406K
S407A
S407E
S407K
N408A
N408E
N408K
D409A
D409E
D409K
T410A
T410E
T410K
I411A
I411E
I411K
I412A
I412E
I412K
R413A
R413E
R413K
A414E
A414K
V415A
V415E
V415K
L416A
L416E
L416K
I417A
I417E
I417K
F418A
F418E
F418K
A419E
A419K
E420A
E420K
G421A
G421E
G421K
I422A
I422E
I422K
F423A
F423E
F423K
T424A
T424E
T424K
G425A
G425E
G425K
E426A
E426K
S427A
S427E
S427K
H428A
H428E
